Substitutions are numbered along the chain they refer to.
T1: GFP-NPH3 (NON-PHOTOTROPIC HYPOCOTYL 3) (Arabidopsis, UniProt Q9FMF5 1-746, phosphoserine at 744 after blue light irradiation (pS744 antibody), not in darkness; phosphorylated on multiple other sites in darkness (including S213, S223, S233, S237), dephosphorylated after blue …)
T1 construct: NPH3 (NON-PHOTOTROPIC HYPOCOTYL 3), Arabidopsis; S746 is the last residue; The state of the protein differs between dark and blue-light-treated seedlings; the two are kept apart by the assay; also called NPH3::GFP-NPH3; source: etiolated Arabidopsis nph3 seedlings expressing NPH3::GFP-NPH3; total protein extract, anti-GFP immunoprecipitated
T1 sequence (looked up): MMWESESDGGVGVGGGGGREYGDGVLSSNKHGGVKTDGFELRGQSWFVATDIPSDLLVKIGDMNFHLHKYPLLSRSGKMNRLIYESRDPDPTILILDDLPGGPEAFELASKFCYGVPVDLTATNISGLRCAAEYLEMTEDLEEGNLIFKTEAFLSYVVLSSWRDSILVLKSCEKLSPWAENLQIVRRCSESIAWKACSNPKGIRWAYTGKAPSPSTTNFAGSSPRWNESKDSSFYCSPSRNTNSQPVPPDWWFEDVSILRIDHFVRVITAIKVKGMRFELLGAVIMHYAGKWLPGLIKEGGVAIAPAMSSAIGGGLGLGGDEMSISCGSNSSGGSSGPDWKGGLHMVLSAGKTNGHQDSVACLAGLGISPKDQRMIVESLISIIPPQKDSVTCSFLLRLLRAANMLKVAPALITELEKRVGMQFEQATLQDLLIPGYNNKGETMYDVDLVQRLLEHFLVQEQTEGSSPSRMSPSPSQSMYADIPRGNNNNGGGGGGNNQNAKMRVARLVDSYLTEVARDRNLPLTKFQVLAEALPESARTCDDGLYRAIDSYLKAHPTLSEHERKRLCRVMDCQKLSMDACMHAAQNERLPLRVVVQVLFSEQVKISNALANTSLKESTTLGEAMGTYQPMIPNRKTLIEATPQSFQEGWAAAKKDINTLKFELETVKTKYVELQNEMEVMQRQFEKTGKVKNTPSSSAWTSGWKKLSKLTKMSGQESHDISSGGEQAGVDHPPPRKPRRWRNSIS

T2: GFP-NPH3 S746A (Arabidopsis, UniProt Q9FMF5 1-746, S746A, phosphoserine at 744 after blue light irradiation, at a reduced level (pS744 antibody))
T2 construct: NPH3, Arabidopsis; source: etiolated Arabidopsis nph3 seedlings expressing NPH3::GFP-NPH3 S746A; total protein extract, anti-GFP immunoprecipitated
T2 sequence (looked up): T1 sequence (looked up) with S746A

B1: GST-14-3-3 Lambda (natural protein, Arabidopsis, UniProt P48349 1-248, looked up)
chain: MAATLGRDQYVYMAKLAEQAERYEEMVQFMEQLVTGATPAEELTVEERNLLSVAYKNVIGSLRAAWRIVSSIEQKEESRKNDEHVSLVKDYRSKVESELSSVCSGILKLLDSHLIPSAGASESKVFYLKMKGDYHRYMAEFKSGDERKTAAEDTMLAYKAAQDIAAADMAPTHPIRLGLALNFSVFYYEILNSSDKACNMAKQAFEEAIAELDTLGEESYKDSTLIMQLLRDNLTLWTSDMQEQMDEA
notes: Arabidopsis 14-3-3 isoform Lambda (non-epsilon group member), expressed from pGEX-4T1 as a translational fusion with GST; source: E. coli BL21(DE3), purified (glutathione agarose)
B2: GST-14-3-3 Epsilon (natural protein, Arabidopsis, UniProt P48347 1-254, looked up)
chain: MENEREKQVYLAKLSEQTERYDEMVEAMKKVAQLDVELTVEERNLVSVGYKNVIGARRASWRILSSIEQKEESKGNDENVKRLKNYRKRVEDELAKVCNDILSVIDKHLIPSSNAVESTVFFYKMKGDYYRYLAEFSSGAERKEAADQSLEAYKAAVAAAENGLAPTHPVRLGLALNFSVFYYEILNSPESACQLAKQAFDDAIAELDSLNEESYKDSTLIMQLLRDNLTLWTSDLNEEGDERTKGADEPQDEN
notes: Arabidopsis 14-3-3 isoform Epsilon (epsilon group member), expressed from pGEX-4T1 as a translational fusion with GST; source: E. coli BL21(DE3), purified (glutathione agarose)

Key:
14-3-3 Epsilon = 14-3-3 Epsilon (UniProt P48347); experiment: far-western of anti-GFP IP, GST-14-3-3 probe; conditions: reference: wild-type GFP-NPH3; sites S744
[1] = target: T1, GFP-NPH3 (NON-PHOTOTROPIC HYPOCOTYL 3); experiment: far-Western, overlay or dot blot; GFP-Trap immunoprecipitates from etiolated seedlings irradiated with 20 µmol m^-2 s^-1 blue light for 15 min (L), separated by SDS-PAGE, on PVDF; probed with purified GST-14-3-3 or GST alone at 1 µM in 20 mM HEPES-KOH pH 7.7, 75 mM KCl, 0.1 mM EDTA, 1 mM DTT, 2% milk, 0.04% Tween-20; detected with anti-GST; conditions: both partners purified
GFP-NPH3 S746A = target: T2, GFP-NPH3 S746A; experiment: as above; conditions: both partners purified

binding against the reference (14-3-3 Epsilon)	binding result [1]	binding result (GFP-NPH3 S746A)	Molecule
lost	–	–	NPH3 (NON-PHOTOTROPIC HYPOCOTYL 3) (from UniProt Q9FMF5) S744A
–	binds	–	B1
–	binds	binds	B2

Source: PMC8531357, “Regulation of plant phototropic growth by NPH3/RPT2-like substrate phosphorylation and 14-3-3 binding” (Nature Communications, 2021)
